Test results: patent US20090048164A1
No end group written: not given here. FLAG = FLAG tag

Tests used:
[1] = molecular target: mouse Mcl-1 with truncations of 151 amino acid residues at its N-terminus and 23 residues at its C-terminus (mouse) (UniProt P97287); assay: competition phage ELISA
[2] = molecular target: Recombinant human Bcl-xL with a 25 amino acid truncation of its C-terminus (human) (UniProt Q07817); assay: competition phage ELISA
Chain of Recombinant human Bcl-xL with a 25 amino acid truncation of its C-terminus (human) (Q07817 1-208): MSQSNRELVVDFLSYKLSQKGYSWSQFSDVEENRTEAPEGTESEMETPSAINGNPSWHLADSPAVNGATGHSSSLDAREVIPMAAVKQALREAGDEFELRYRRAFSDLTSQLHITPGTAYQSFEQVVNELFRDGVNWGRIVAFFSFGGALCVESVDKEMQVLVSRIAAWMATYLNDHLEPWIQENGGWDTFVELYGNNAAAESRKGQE

Chain of mouse Mcl-1 with truncations of 151 amino acid residues at its N-terminus and 23 residues at its C-terminus (mouse) (P97287 152-308): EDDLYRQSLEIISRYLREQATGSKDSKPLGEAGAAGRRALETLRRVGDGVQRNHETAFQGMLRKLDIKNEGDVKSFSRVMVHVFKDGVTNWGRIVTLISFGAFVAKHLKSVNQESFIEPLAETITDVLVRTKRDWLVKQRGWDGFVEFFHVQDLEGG

| Binder | Fold/wt [1] [fold] | IC50 [1] [nM] | Fold/wt [2] [fold] | IC50 [2] [nM] |
| --- | --- | --- | --- | --- |
| {FLAG}-RAELPPAFAAQLRKIGDKVYCTWSAP-{GGGT-g3(249-406)} [mNoxaA BH3 E7A, phage-displayed] | 1 | 43 | – | – |
| {FLAG}-RAELPPEFAAQARKIGDKVYCTWSAP-{GGGT-g3(249-406)} [mNoxaA BH3 L12A, phage-displayed] | 2 | 67 | – | – |
| {FLAG}-RAELPPEAAAQLRKIGDKVYCTWSAP-{GGGT-g3(249-406)} [mNoxaA BH3 F8A, phage-displayed] | 1 | 24 | – | – |
| {FLAG}-RAEAPPEFAAQLRKIGDKVYCTWSAP-{GGGT-g3(249-406)} [mNoxaA BH3 L4A, phage-displayed] | 1 | 24 | – | – |
| NLWAAQRYGRELRRMSDEFVASFKKG [Bad BH3 D21A, phage-displayed] | – | – | 1 | 2 |
| NLWAEQRYGRELRRMSDEFVDSFKKG [Bad BH3 A5E, phage-displayed] | – | – | 5 | 12 |
| NLWAAQRYGRELRRMSDEFADSFKKG [Bad BH3 V20A, phage-displayed] | – | – | 1 | 3 |
| {FLAG}-RAELPPEFAAQLRKIGDAVYCTWSAP-{GGGT-g3(249-406)} [mNoxaA BH3 K18A, phage-displayed] | < 1 | 11 | – | – |
| NLWAAQRYGRELARMSDEFVDSFKKG [Bad BH3 R13A, phage-displayed] | – | – | 1 | 3 |
| {FLAG}-RAELPAEFAAQLRKIGDKVYCTWSAP-{GGGT-g3(249-406)} [mNoxaA BH3 P6A, phage-displayed] | < 1 | 8 | – | – |
| NLWAAQRYGRELRRMSDEFVDSFKAG [Bad BH3 K25A, phage-displayed] | – | – | 2 | 4 |
| NLWAAQRYGRELRRMSDAFVDSFKKG [Bad BH3 E18A, phage-displayed] | – | – | 2 | 4 |
| NAWAAQRYGRELRRMSDEFVDSFKKG [Bad BH3 L2A, phage-displayed] | – | – | 2 | 4 |
| NLWAAQRYGAELRRMSDEFVDSFKKG [Bad BH3 R10A, phage-displayed] | – | – | 1 | 3 |
| NLWAAQRYGRELRRMSDEAVDSFKKG [Bad BH3 F19A, phage-displayed] | – | – | 12 | 27 |
| PSSTMGQVGRQAAIIGDDINRRYDSE [Bak BH3 L12A, phage-displayed] | 20 | 414 | – | – |
| QEDIIRNIARHLAQAGDSMDRSIPPG [Bid BH3 V15A, phage-displayed] | 2 | 245 | – | – |
| {FLAG}-RAELPPEFAAQLRAIGDKVYCTWSAP-{GGGT-g3(249-406)} [mNoxaA BH3 K14A, phage-displayed] | 1 | 37 | – | – |
| {FLAG}-RAELPPEFAEQLRKIGDKVYCTWSAP-{GGGT-g3(249-406)} [mNoxaA BH3 A10E, phage-displayed] | 1 | 43 | – | – |
| NLWAAQRAGRELRRMSDEFVDSFKKG [Bad BH3 Y8A, phage-displayed] | – | – | 3 | 7 |
| RAELPPEFAAQLRKIGDKVYCTWSAP-{GGGT-g3(249-406)} (not fully specified (N-terminus)) [mNoxaA BH3 wild type, phage-displayed] | 1 | 39 | – | – |
| PSSTMGQVERQLAIIGDDINRRYDSE [Bak BH3 G9E, phage-displayed] | 21 | 438 | – | – |
| RAELPPEFAAQLRKIGDKVYCTASAP-{GGGT-g3(249-406)} (not fully specified (N-terminus)) [mNoxaA BH3 W23A, phage-displayed] | 2 | 69 | – | – |
| NLWAAQRYGRELRRMSDEFVDAFKKG [Bad BH3 S22A, phage-displayed] | – | – | 2 | 4 |
| PSSTMGQVGRQLAIIGDDANRRYDSE [Bak BH3 I19A, phage-displayed] | 9 | 185 | – | – |
| RAELPPEFAAQLRKIGDKVACTWSAP-{GGGT-g3(249-406)} (not fully specified (N-terminus)) [mNoxaA BH3 Y20A, phage-displayed] | 1 | 32 | – | – |

| Binder | Fold/wt [1] [fold] | IC50 [1] [nM] | Fold/wt [2] [fold] | IC50 [2] [nM] |
| --- | --- | --- | --- | --- |
| PSSTMGQVGRQLAIAGDDINRRYDSE [Bak BH3 I15A, phage-displayed] | 25 | 517 | – | – |
| NLWAAQRYGRELRRASDEFVDSFKKG [Bad BH3 M15A, phage-displayed] | – | – | 3 | 6 |
| {FLAG}-REELPPEFAAQLRKIGDKVYCTWSAP-{GGGT-g3(249-406)} [mNoxaA BH3 A2E, phage-displayed] | 1 | 22 | – | – |
| PSSTMGQVGRQLEIIGDDINRRYDSE [Bak BH3 A13E, phage-displayed] | 17 | 356 | – | – |
| PSSTMGQAGRQLAIIGDDINRRYDSE [Bak BH3 V8A, phage-displayed] | 4 | 79 | – | – |
| NLAAAQRYGRELRRMSDEFVDSFKKG [Bad BH3 W3A, phage-displayed] | – | – | 1 | 3 |
| NLWAAQRYGRELRRMSDEFVDSFAKG [Bad BH3 K24A, phage-displayed] | – | – | 2 | 4 |
| NLWAAQRYGRELRRMSAEFVDSFKKG [Bad BH3 D17A, phage-displayed] | – | – | 7 | 16 |
| NLWEAQRYGRELRRMSDEFVDSFKKG [Bad BH3 A4E, phage-displayed] | – | – | 2 | 4 |
| {FLAG}-RAELPPEFAAQLAKIGDKVYCTWSAP-{GGGT-g3(249-406)} [mNoxaA BH3 R13A, phage-displayed] | 1 | 57 | – | – |
| {FLAG}-RAELPPEFEAQLRKIGDKVYCTWSAP-{GGGT-g3(249-406)} [mNoxaA BH3 A9E, phage-displayed] | 2 | 76 | – | – |
| {FLAG}-RAELPPEFAAALRKIGDKVYCTWSAP-{GGGT-g3(249-406)} [mNoxaA BH3 Q11A, phage-displayed] | 1 | 22 | – | – |
| {FLAG}-AAELPPEFAAQLRKIGDKVYCTWSAP-{GGGT-g3(249-406)} [mNoxaA BH3 R1A, phage-displayed] | 1 | 20 | – | – |
| ALWAAQRYGRELRRMSDEFVDSFKKG [Bad BH3 N1A, phage-displayed] | – | – | 1 | 2 |
| NLWAAQRYGRELRRMSDEFVDSFKKE [Bad BH3 G26E, phage-displayed] | – | – | 1 | 3 |
| {FLAG}-RAALPPEFAAQLRKIGDKVYCTWSAP-{GGGT-g3(249-406)} [mNoxaA BH3 E3A, phage-displayed] | 1 | 30 | – | – |
| {FLAG}-RAELPPEFAAQLRKIGDKVYATWSAP-{GGGT-g3(249-406)} [mNoxaA BH3 C21A, phage-displayed] | 1 | 19 | – | – |
| {FLAG}-RAELPPEFAAQLRKIGDKVYCTWSEP-{GGGT-g3(249-406)} [mNoxaA BH3 A25E, phage-displayed] | 1 | 33 | – | – |
| NLWAAARYGRELRRMSDEFVDSFKKG [Bad BH3 Q6A, phage-displayed] | – | – | 2 | 3 |
| {FLAG}-RAELPPEFAAQLRKIGDKVYCTWAAP-{GGGT-g3(249-406)} [mNoxaA BH3 S24A, phage-displayed] | < 1 | 13 | – | – |
| NLWAAQRYGRELRRMSDEFVDSAKKG [Bad BH3 F23A, phage-displayed] | – | – | 2 | 4 |
| NLWAAQAYGRELRRMSDEFVDSFKKG [Bad BH3 R7A, phage-displayed] | – | – | 2 | 4 |
| NLWAAQRYGRELRAMSDEFVDSFKKG [Bad BH3 R14A, phage-displayed] | – | – | 2 | 4 |
| {FLAG}-RAELPPEFAAQLRKIGDKVYCAWSAP-{GGGT-g3(249-406)} [mNoxaA BH3 T22A, phage-displayed] | < 1 | 14 | – | – |
| {FLAG}-RAELAPEFAAQLRKIGDKVYCTWSAP-{GGGT-g3(249-406)} [mNoxaA BH3 P5A, phage-displayed] | 1 | 20 | – | – |
